B1: Betv1-HG (antibody, V domains shown)
VH: EVQLQQSGAELVKPGASVKLSCTASGFNIKDTYIHWVKQRPEQGLEWVGRIDPATGNTRYDPKFQGKATITADTSSNTAYLQLSSLTSEDTAVYYCASFRPGYALDYWGQGTSVTVSS
VL: DIVMTQSHKFMSTSVGDRVSFTCKASQDVFTAVAWYQQKPGQSPKLLIYWASTRRTGVPDRFTGSGSGTDYTLTISSVQAEDLALYYCQQHFSTPPTFGGGTKLEIKR
notes: Half-molecule of one heavy and one light chain; also called anti-Betv1-HG; hingeless IgG4 anti-Bet v 1
B2: 7D8-HG (antibody)
heavy: EVQLVESGGGLVQPDRSLRLSCAASGFTFHDYAMHWVRQAPGKGLEWVSTISWNSGTIGYADSVKGRFTISRDNAKNSLYLQMNSLRAEDTALYYCAKDIQYGNYYYGMDVWGQGTTVTVSSASTKGPSVFPLAPCSRSTSESTAALGCLVKDYFPEPVTVSWNSGALTSGVHTFPAVLQSSGLYSLSSVVTVPSSSLGTKTYTCNVDHKPSNTKVDKRVAPEFLGGPSVFLFPPKPKDTLMISRTPEVTCVVVDVSQEDPEVQFNWYVDGVEVHNAKTKPREEQFNSTYRVVSVLTVLHQDWLNGKEYKCKVSNKGLPSSIEKTISKAKGQPREPQVYTLPPSQEEMTKNQVSLTCLVKGFYPSDIAVEWESNGQPENNYKTTPPVLDSDGSFFLYSRLTVDKSRWQEGNVFSCSVMHEALHNHYTQKSLSLSLGK
light: not shown
notes: Half-molecule of one heavy and one light chain; also called HuMab 7D8-HG; hingeless IgG4 anti-CD20

Experiments:
[1] = biological target: the molecule itself; test: gel filtration on Superdex 200 (eluted at about 70 kD); self-association of half-molecules
Experimental: Samples (100 μl) were applied to a Superdex 200 HR 10/30 column (Amersham Biosciences, Uppsala, Sweden), which was connected to a HPLC system (ÄKTA explorer) from Amersham Biosciences, Uppsala, Sweden. The column was first equilibrated in PBS. Fractions of 250 μl were collected, in which Bet v 1 specific IgG was measured using the antigen binding assay.
To test the antigen binding of the Bet v 1 specific antibodies, a sample of diluted antibody was incubated overnight at room temperature with 0.75 mg Protein-G sepharose (Amersham Biosciences, Uppsala, Sweden) in 750 μl PBS/AT (PBS supplemented with 0.3% BSA, 0.1% Tween-20, 0.05% NaN3) together with 50 μl diluted ¹²⁵I-labelled Bet v 1 or ¹²⁵I-labelled Fel d 1. […] After washing the Sepharose suspension with PBS-T (PBS supplemented with 0.1% Tween-20), the bound radioactivity was measured. The results were expressed as the amount of radioactivity relative to the amount added.

human C1q = biological target: T1, human C1q (human, UniProt P02745 23-245; P02746 28-253; P02747 29-245); test: ELISA, antibody coated, bound C1q detected with rabbit anti-human C1q
T1 construct: Bought human C1q; also called first component of the classical complement cascade
T1 sequence (P02745 23-245 limits assumed, chain 1 of 3): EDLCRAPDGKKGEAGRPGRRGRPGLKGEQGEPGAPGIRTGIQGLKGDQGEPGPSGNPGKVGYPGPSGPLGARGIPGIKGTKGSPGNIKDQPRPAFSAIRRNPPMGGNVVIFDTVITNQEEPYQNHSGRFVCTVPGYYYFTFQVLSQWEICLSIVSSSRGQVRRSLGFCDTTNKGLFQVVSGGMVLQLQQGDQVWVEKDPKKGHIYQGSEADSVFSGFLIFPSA
T1 sequence (P02746 28-253 limits assumed, chain 2 of 3): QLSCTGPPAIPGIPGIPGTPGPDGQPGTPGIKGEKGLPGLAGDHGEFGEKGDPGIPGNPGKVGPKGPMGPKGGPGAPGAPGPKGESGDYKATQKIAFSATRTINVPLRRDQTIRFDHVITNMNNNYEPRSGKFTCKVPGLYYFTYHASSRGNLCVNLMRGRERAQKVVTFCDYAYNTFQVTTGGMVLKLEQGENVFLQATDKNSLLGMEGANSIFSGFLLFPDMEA
T1 sequence (P02747 29-245 limits assumed, chain 3 of 3): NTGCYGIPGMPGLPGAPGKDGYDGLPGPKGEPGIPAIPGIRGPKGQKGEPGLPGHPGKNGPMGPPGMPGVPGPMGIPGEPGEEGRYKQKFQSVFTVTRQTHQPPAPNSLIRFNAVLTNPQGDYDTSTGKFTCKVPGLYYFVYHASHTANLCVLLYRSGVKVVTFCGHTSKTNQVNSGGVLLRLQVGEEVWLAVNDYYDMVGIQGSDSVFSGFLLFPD
Experimental: In short, microtiter ELISA plates (Greiner, Germany) were coated overnight at RT with the test antibodies serially diluted from 10 μg/ml to 0.06 μg/ml in PBS. Plates were emptied and wells were blocked with 200 μl ELISA-diluent per well (0.1 M NaPO₄, 0.1 M NaCl, 0.1% gelatin and 0.05% Tween-20), at RT for 30 minutes. […] After washing the plates (3×) with PBST, wells were incubated with HRP-conjugated swine anti-rabbit IgG-Fc (DAKO, P0300, lot #069) diluted in ELISA diluent (1:2500, 100 μl/well, RT, 1 hour). Thereafter, plates were washed thrice and assays were developed with freshly prepared 1 mg/ml ABTS solution (ABTS: 2,2′-azino-bis[3-ethylbenzthiazoline-6-sulfonic acid]); 2 tablets of 5 mg in 10 ml ABTS buffer, Boehringer Mannheim, Ingelheim, Germany) at RT in the dark for 30 minutes. Absorbance was measured at 405 nm in an ELISA plate reader (Biotek Instruments Inc., Winooski, USA).

Binder | binding result [1] | binding result (human C1q)
B1 | no binding | 
B2 |  | no binding
